Test results published in the supplement of paper PMC10724198.
± gives the standard deviation of the averaged measurements.

tested on: Saccharomyces cerevisiae; assay: protein stability index of tFT-peptide fusion (C-terminal peptide) (PSI (0-1 scale)); higher = more stable (slower turnover); conditions: genetic background: wild type; temperature: 30 C
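Further: PSI is a weighted mean of sequencing reads over stability bins, variants kept only with over 10 reads, mCherry proximal and sfGFP distal, peptide attached via GGGS linker.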

Row | Sequence | protein stability index
1 | RFAFLPPPPLPP | 0.636 ± 0.011
2 | RFCQSHTSVSSF | 0.652 ± 0.039
3 | RFGGGAVWGLGG | 0.666 ± 0.02
4 | RFGPPPPPPSTL | 0.71 ± 0.035
5 | RFGRGAVGGLGG | 0.668 ± 0.02
6 | RFGSGYLRRYTH | 0.776 ± 0.011
7 | RFIGVVTRLRRC | 0.643 ± 0.042
8 | RFKLEKIKHKKK | 0.755 ± 0.054
9 | RFPRSSPPHRSL | 0.717 ± 0.023
10 | RFRSMTGVIVSE | 0.6772 ± 0.002
11 | RFSPRSLIFFPS | 0.612 ± 0.03
12 | RFTPLSFCTDRV | 0.658 ± 0.025
13 | RGARTGGGRDGS | 0.705 ± 0.025
14 | RGEGGRALGVGR | 0.688 ± 0.015
15 | RGEGGRGRTVEG | 0.631 ± 0.077
16 | RGEVQPRRDPGA | 0.662 ± 0.0095
17 | RGFGSGTVGVQS | 0.616 ± 0.034
18 | RGFMLGFVSRFS | 0.625 ± 0.039
19 | RGFPPPPLLSSR | 0.74 ± 0.059
20 | RGGGEWGKEDSQ | 0.705 ± 0.019
21 | RGGGGRGWGSRG | 0.67 ± 0.027
22 | RGGGGVLEVLLG | 0.5347 ± 0.0046
23 | RGGGQVLGVRVG | 0.667 ± 0.089

Row | Sequence | protein stability index
24 | RGGGSWWCGGDQ | 0.76 ± 0.024
25 | RGGGVGRGLGGK | 0.605 ± 0.066
26 | RGGLRRGSGREG | 0.684 ± 0.068
27 | RGGPLSSGVVLV | 0.714 ± 0.049
28 | RGGRGAVRWLRG | 0.66791 ± 7.1e-07
29 | RGGVAGQPDAGR | 0.666 ± 0.014
30 | RGKIKKTRKDNK | 0.598 ± 0.021
31 | RGKTGLTRYIGV | 0.709 ± 0.074
32 | RGLGGGAECGRW | 0.785 ± 0.12
33 | RGLGVFGVVSPA | 0.7 ± 0.057
34 | RGLRIFMSRAWH | 0.75 ± 0.043
35 | RGLVLWVVSGRG | 0.6155 ± 0.0045
36 | RGLVSPPPPLPS | 0.681 ± 0.024
37 | RGLYPLKVDCQW | 0.753 ± 0.036
38 | RGPRGGFHFFRA | 0.6657 ± 0.003
39 | RGREGSSVAVMV | 0.646 ± 0.04
40 | RGRFGYTSSTLA | 0.686 ± 0.041
41 | RGRGRVFVFGNW | 0.726 ± 0.033
42 | RGRLRFGNTTGI | 0.691 ± 0.035
43 | RGRRPRPGGTGT | 0.641 ± 0.016
44 | RGRRRGGQQIAE | 0.666 ± 0.007
45 | RGRSGASSGWRG | 0.659 ± 0.044
46 | RGSQLFWSRGYL | 0.707 ± 0.035

Row | Sequence | protein stability index
47 | RGSSPRAVTVWM | 0.804 ± 0.075
48 | RGTDSRERIKRR | 0.721 ± 0.06
49 | RGTWSLFYAFLD | 0.578 ± 0.035
50 | RGVGAGGLEGIG | 0.535 ± 0.011
51 | RGVGCLIITHSL | 0.608 ± 0.073
52 | RGVGGVLEVLLG | 0.5256 ± 0.0032
53 | RGVGWGGLEGIG | 0.5235 ± 0.0014
54 | RGVGWVLEVLLG | 0.518 ± 0.0087
55 | RGVPPPCPLLAA | 0.599 ± 0.077
56 | RGWAGGRQGCGG | 0.746 ± 0.055
57 | RGWVEWGVRASE | 0.749 ± 0.06
58 | RGYEGSEVQVGV | 0.677 ± 0.043
59 | RGYGRGWRGVGA | 0.747 ± 0.18
60 | RGYLAKELGVKS | 0.652 ± 0.02
61 | RHAFGSSHVRFF | 0.679 ± 0.024
62 | RHLVSPSTRAIS | 0.77 ± 0.15
63 | RHMLSDFIDACS | 0.72 ± 0.12
64 | RHPPPRSSPPDL | 0.639 ± 0.095
65 | RHPVFSSTVSYI | 0.738 ± 0.03
66 | RHSREPRASMTR | 0.641 ± 0.072
67 | RHTFMCQRRVGL | 0.78 ± 0.084
68 | RHVSHASRLTPG | 0.602 ± 0.11
69 | RHYGVTSLISLQ | 0.674 ± 0.01

Row | Sequence | protein stability index
70 | RIAPSLPPSSFL | 0.688 ± 0.0095
71 | RIATRCEGPGHK | 0.663 ± 0.015
72 | RIDLFCVRSSLV | 0.6573 ± 0.0054
73 | RIGEHGWLTGYI | 0.736 ± 0.012
74 | RILVYRKENRKN | 0.678 ± 0.052
75 | RINKKRETNQGK | 0.685 ± 0.05
76 | RIQMSGHTNLVG | 0.686 ± 0.024
77 | RISPRVSARLCI | 0.616 ± 0.007
78 | RITYIANNVMLF | 0.652 ± 0.028
79 | RIYDNKNTGIYH | 0.707 ± 0.022
80 | RKCMSNSKNNNE | 0.669 ± 0.018
81 | RKEAVTQTQKNT | 0.672 ± 0.051
82 | RKEQRTERKSQK | 0.721 ± 0.066
83 | RKGERRKKKKRR | 0.677 ± 0.051
84 | RKGKKNKKPKKQ | 0.612 ± 0.02
85 | RKKEKKERKERK | 0.66 ± 0.069
86 | RKKENKIANRKI | 0.6893 ± 0.00094
87 | RKKIIRDKLNTS | 0.709 ± 0.051
88 | RKKKKKKRGKNR | 0.621 ± 0.043
89 | RKKREKNKKRKE | 0.695 ± 0.049
90 | RKKYPLMINGKR | 0.711 ± 0.0073
91 | RKMNEEKEIRRQ | 0.6569 ± 0.0065
92 | RKNQNAWMPALQ | 0.702 ± 0.1

Row | Sequence | protein stability index
93 | RKRWQWGRVRGV | 0.617 ± 0.11
94 | RKSCKRNERIRK | 0.669 ± 0.035
95 | RKSIGTAYRMPR | 0.755 ± 0.081
96 | RKSSLVARTGMI | 0.623 ± 0.071
97 | RKTEGGGEGLAV | 0.728 ± 0.035
98 | RLARAPTQPRLS | 0.67 ± 0.062
99 | RLASGGSAFINL | 0.78 ± 0.2
100 | RLAVLSLPPHPT | 0.6685 ± 0.0037
101 | RLCSPVSVLLPP | 0.713 ± 0.047
102 | RLEAVLCRRFLR | 0.6561 ± 0.0026
103 | RLFFSRSVRSFF | 0.529 ± 0.017
104 | RLFTTVHSLQDV | 0.674 ± 0.016
105 | RLGNPPPFSTLG | 0.691 ± 0.075
106 | RLGWGGVGGAGV | 0.711 ± 0.033
107 | RLIPPQTAHEFP | 0.685 ± 0.028
108 | RLKFHRLVMTGY | 0.612 ± 0.031
109 | RLKTNKVIIKIK | 0.6665 ± 0.0032
110 | RLLAGLPLGGGN | 0.656 ± 0.051
111 | RLLCSETPPTLA | 0.665 ± 0.014
112 | RLLMIFTSKMFM | 0.6623 ± 0.0019
113 | RLLVSDSLLLGC | 0.684 ± 0.014
114 | RLNNRVMGHIEA | 0.6673 ± 0.0062
115 | RLNRSRAVTFRI | 0.663 ± 0.019

Row | Sequence | protein stability index
116 | RLPGLTHFLPKI | 0.654 ± 0.038
117 | RLPLSSPLRFSL | 0.712 ± 0.06
118 | RLPPLLVPFPSS | 0.694 ± 0.015
119 | RLPPPPPPPSTP | 0.725 ± 0.053
120 | RLPPPPPSPFPS | 0.778 ± 0.056
121 | RLPRHLPPAPAL | 0.679 ± 0.025
122 | RLPRRSVGRSTG | 0.673 ± 0.078
123 | RLRPVLSPHAPI | 0.648 ± 0.033
124 | RLTEVRVTLGSL | 0.711 ± 0.082
125 | RLTKTRNDLRSL | 0.654 ± 0.016
126 | RLTSPVLLFPLP | 0.713 ± 0.013
127 | RLVRVTSIKGKR | 0.735 ± 0.054
128 | RMINRLEKKHTK | 0.771 ± 0.098
129 | RMKKYKYELDLN | 0.659 ± 0.019
130 | RNKKKKNKNEKE | 0.705 ± 0.0073
131 | RNKNNKKNKKIR | 0.702 ± 0.1
132 | RNNKMYKYQGNL | 0.662 ± 0.083
133 | RNQQQENNKQSK | 0.694 ± 0.016
134 | RNSTDENDCGRK | 0.7062 ± 0.00038
135 | RNTKGRIKKKKE | 0.728 ± 0.039
136 | RNTRAVREHRNV | 0.726 ± 0.0092
137 | RNTSQNRIDEKL | 0.657 ± 0.014
138 | RNVALPSRKAQY | 0.715 ± 0.016

Row | Sequence | protein stability index
139 | RNYQKAKENMKL | 0.585 ± 0.14
140 | RPAPASAFPHSP | 0.69 ± 0.045
141 | RPASPRSPIVSR | 0.726 ± 0.024
142 | RPAVPSPRPPPP | 0.674 ± 0.029
143 | RPELGLCAGDTN | 0.673 ± 0.061
144 | RPFAPLPPPPSM | 0.689 ± 0.025
145 | RPFATVLRTRAV | 0.71 ± 0.0077
146 | RPGGVRVVSIQL | 0.672 ± 0.06
147 | RPGYDRNRTGMI | 0.738 ± 0.073
148 | RPHAFHCDPSSP | 0.698 ± 0.11
149 | RPKTLGNAREEG | 0.708 ± 0.039
150 | RPKWLCAIATAD | 0.687 ± 0.023
151 | RPLPGAFLLFRS | 0.695 ± 0.021
152 | RPLRRQREVCGA | 0.597 ± 0.019
153 | RPLRVLSYVPIH | 0.644 ± 0.03
154 | RPLWVDGPHPSR | 0.666 ± 0.1
155 | RPMKGLSMGSCA | 0.66 ± 0.011
156 | RPPFPLRTSPLV | 0.694 ± 0.037
157 | RPPLSPLLYPPP | 0.7115 ± 0.0022
158 | RPPPALWPPPSP | 0.694 ± 0.027
159 | RPPPSPPPIPSP | 0.666 ± 0.033
160 | RPPRPPTHSPPP | 0.68 ± 0.01
